Results: PMC9795577

Assays:
[1] = target: FLAG-tagged yeast PEX13 with a single cysteine at residue 104 in the YG domain (S. cerevisiae) (UniProt P80667); test: cross-linking; disulfide cross-linking of introduced cysteines in intact yeast membranes: 0, 50 or 200 μM Aldrithiol-4, 30 min at 30 °C, 20 mM HEPES-NaOH pH 7.2, 50 mM NaCl, 250 mM sucrose, 1 mM EDTA; quenched with NEM, solubilised in 0.5 % DDM, anti-FLAG IP, non-reducing or reducing SDS-PAGE, blot; also with DDM added before the oxidant, and in strains lacking PEX2, PEX5, PEX14 or PEX17
[2] = target: FLAG-tagged yeast PEX13 with two cysteines in the YG domain (positions 104 and 131) (S. cerevisiae) (UniProt P80667); test: as above
[3] = target: FLAG-tagged yeast PEX13 with a single cysteine at residue 131 in the YG domain (S. cerevisiae) (UniProt P80667); test: as above
[4] = target: FLAG-tagged yeast PEX13 with two cysteines (104 and 131) and all tyrosines of the YG domain converted into serines (UniProt P80667); test: disulfide crosslinking in intact membranes, FLAG IP and immunoblot quantification; settings: nonreducing SDS-PAGE, read off a plot
Chain of FLAG-tagged yeast PEX13 with two cysteines (104 and 131) and all tyrosines of the YG domain converted into serines (P80667 other isoform, or with tags, fused parts or gaps): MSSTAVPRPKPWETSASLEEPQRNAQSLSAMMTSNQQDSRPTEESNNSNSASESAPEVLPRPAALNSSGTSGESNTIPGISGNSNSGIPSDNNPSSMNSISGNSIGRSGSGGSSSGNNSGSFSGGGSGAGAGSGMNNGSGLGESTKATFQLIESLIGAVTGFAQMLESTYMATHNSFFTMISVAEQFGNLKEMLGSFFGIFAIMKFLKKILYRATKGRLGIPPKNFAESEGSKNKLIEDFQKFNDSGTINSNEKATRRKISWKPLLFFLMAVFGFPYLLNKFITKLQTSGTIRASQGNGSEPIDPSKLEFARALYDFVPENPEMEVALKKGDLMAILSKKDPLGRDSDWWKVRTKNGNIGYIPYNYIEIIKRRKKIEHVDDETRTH

Chain of FLAG-tagged yeast PEX13 with two cysteines in the YG domain (positions 104 and 131) (P80667 whole entry, the tested form may be a part): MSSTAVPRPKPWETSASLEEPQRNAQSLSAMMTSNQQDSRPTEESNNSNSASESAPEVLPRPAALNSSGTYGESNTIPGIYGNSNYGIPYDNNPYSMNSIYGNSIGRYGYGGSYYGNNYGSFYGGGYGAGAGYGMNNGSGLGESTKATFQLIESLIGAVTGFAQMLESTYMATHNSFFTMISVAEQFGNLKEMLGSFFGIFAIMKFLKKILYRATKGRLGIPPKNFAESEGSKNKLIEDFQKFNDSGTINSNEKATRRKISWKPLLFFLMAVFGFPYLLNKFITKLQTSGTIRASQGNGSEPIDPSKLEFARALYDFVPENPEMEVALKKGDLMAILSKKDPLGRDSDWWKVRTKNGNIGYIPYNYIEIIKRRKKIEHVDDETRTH
Chain of FLAG-tagged yeast PEX13 with a single cysteine at residue 131 in the YG domain (P80667 whole entry, the tested form may be a part): as above
Chain of FLAG-tagged yeast PEX13 with a single cysteine at residue 104 in the YG domain (P80667 whole entry, the tested form may be a part): as above

“FLAG-tagged yeast PEX13 with a single cysteine at residue 104 in the YG domain (from UniProt P80667 1-386) (natural protein)” gave a percent disulfide-linked dimers [1] of over 70%.

With “FLAG-tagged yeast PEX13 with two cysteines in the YG domain (positions 104 and 131) (from UniProt P80667 1-386) (natural protein)” the stoichiometry N [2] was over 8.

“FLAG-tagged yeast PEX13 with a single cysteine at residue 131 in the YG domain (from UniProt P80667 1-386) (natural protein)” gave a percent disulfide-linked dimers [3] of over 70%.

“FLAG-tagged yeast PEX13 with two cysteines in the YG domain (positions 104 and 131) (from UniProt P80667) Y71S; Y81S; Y86S; Y90S; Y95S; Y101S; Y108S; Y110S; Y114S; Y115S; Y119S; Y123S; Y127S; Y133S” gave an other: fraction crosslinked ([4]; lane 4 (parent lane 1), lowest point of oxidant series, 0 µM Aldrithiol-4, parent: est. 0.10) of 0.06, an other: fraction crosslinked ([4]; lane 5 (parent lane 2), middle point of oxidant series, 50 µM Aldrithiol-4, parent: est. 0.67) of 0.1 and an other: fraction crosslinked ([4]; lane 6 (parent lane 3), highest point of oxidant series, 200 µM Aldrithiol-4, parent: est. 0.70) of 0.18.
